Data reported in publication PMC8564274 (Signal Transduction and Targeted Therapy, 2021).

Target: SARS-CoV-2 receptor-binding domain (RBD) (SARS-CoV-2, UniProt P0DTC2)
Experiment: BLI
Conditions: both partners purified

B1: CB6 (antibody, V domains shown)
VH: EVQLVESGGGLVQPGGSLRLSCAASGFTVSSNYMSWVRQAPGKGLEWVSVIYSGGSTFYADSVKGRFTISRDNSMNTLFLQMNSLRAEDTAVYYCARVLPMYGDYLDYWGQGTLVTVSS
VL: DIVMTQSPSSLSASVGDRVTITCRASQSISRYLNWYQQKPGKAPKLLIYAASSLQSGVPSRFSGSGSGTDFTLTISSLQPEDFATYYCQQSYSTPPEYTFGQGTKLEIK
binding result: binds
